Measurements published in publication PMC2760139.

Assays:
[1] = system: DENV2 capsid protein C, mature WT (Dengue virus type 2 (cDNA clone GenBank U87411)); assay: filter binding
[2] = target: mature dengue virus type 2 capsid (C) protein with substitutions L50S-L54S, recombinant (dengue virus type 2) (UniProt P29990); assay: SEC-MALS
[3] = target: mature dengue virus type 2 capsid (C) protein, wild type, recombinant (dengue virus type 2) (UniProt P29990); assay: SEC-MALS

**Q.** For “DENV 5'UTR RNA probe (viral 5' terminal region nt 1-160)”, which Kd [1] is on record?
**A.** 22 nM

**Q.** Which stoichiometry N [2] does the source give for “mature dengue virus type 2 capsid (C) protein with substitutions L50S-L54S, recombinant (from UniProt P29990 1-100) (natural protein)” here?
**A.** 2

**Q.** “mature dengue virus type 2 capsid (C) protein, wild type, recombinant (from UniProt P29990) (natural protein)” was tested. Which stoichiometry N [3] did it give?
**A.** 2
